Measured values as given in publication doi:10.1101/580043 (bioRxiv, 2019).
Where no end group is shown, it is not given here.

Legend:
[1] = molecular target: MBP-tagged PRG-1 PIWI domain (C. elegans); test: MST
[2] = molecular target: T1, Recombinant full-length MBP-tagged PRG-1 (C. elegans, UniProt P90786 1-824); test: MST
T1 sequence (looked up): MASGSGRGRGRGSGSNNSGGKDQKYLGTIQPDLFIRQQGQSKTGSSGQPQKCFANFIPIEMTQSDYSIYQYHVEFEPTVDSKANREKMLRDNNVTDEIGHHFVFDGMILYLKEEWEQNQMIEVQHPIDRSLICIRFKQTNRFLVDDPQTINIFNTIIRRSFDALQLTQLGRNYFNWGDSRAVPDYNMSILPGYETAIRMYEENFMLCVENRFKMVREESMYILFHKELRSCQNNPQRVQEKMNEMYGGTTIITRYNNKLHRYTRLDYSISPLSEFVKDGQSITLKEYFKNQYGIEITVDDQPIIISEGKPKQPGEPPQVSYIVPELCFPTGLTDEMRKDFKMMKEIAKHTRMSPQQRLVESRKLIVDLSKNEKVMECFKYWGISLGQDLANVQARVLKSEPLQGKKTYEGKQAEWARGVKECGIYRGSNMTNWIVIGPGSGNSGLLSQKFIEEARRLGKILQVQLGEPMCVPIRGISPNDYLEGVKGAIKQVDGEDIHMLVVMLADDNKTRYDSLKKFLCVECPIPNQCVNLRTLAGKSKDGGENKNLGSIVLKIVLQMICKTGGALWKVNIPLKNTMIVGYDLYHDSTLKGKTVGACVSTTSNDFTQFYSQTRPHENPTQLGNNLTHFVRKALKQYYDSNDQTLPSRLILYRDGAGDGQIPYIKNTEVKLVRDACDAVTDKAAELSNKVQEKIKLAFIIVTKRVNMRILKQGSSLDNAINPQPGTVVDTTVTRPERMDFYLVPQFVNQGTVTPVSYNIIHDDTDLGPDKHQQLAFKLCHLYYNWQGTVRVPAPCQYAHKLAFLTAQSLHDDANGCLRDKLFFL

| Binder | Kd [1] | Kd [2] |
| --- | --- | --- |
| NFDNIEEAKNLERRSKIPLKFGEVILWNESDCDHDKRIIL (also: labelled with atto-488 NHS ester, site not given here) [DEPS-1 PBS motif peptide] | 1900 nM | – |
| Recombinant full-length MBP-tagged DEPS-1 (natural protein, C. elegans, UniProt Q9N303 1-619, looked up, labelled with atto-488 NHS ester) MSERQSKYFDYQGIVISSTGQDNQDSETDLVYLIQAHGKAAPKNIMYGVSKCAFVPTNLERNFDNIEEAKNLERRSKIPLKFGEVILWNESDCDHDKRIILHIKREKPIYEASSSRNGLILKVGGVIQPTSTTSFWTPLCTVTMPETEATRAEPDVWLYAWIRFETTMKSGLDPFNMTATFESFDSCDPSDQARVCEAPWNAGSPDSKFGVWRPDPKPADSDDEIDIEPREGWHLPEDKWAEVIKMQLGLYVGERLLICKELSQFDFIIPLQKPFSRGTDKTLIYPAVGEYFHFSAIWSMQHNGFLIYELQPVPLLRQHVTSVNGNLLTRVVPASIRGLFVDKEGTLGLIDDPHHLLSFFEFHPAGYEFLKAMAEVRAVRTSENKSVRYRIVRTSGMSIFENWLRDTQFVVGPVKGIRINEDTVICAKHPNVYFKIPNNLKEGIPIGGGVQFVGKRQAGVDSEIMITECSPCPAFTCKNYSVSGDTRLFQVYLKPNCDHEQLAESDSMGFVDFRELETPCRGKFLAWVRESITVNDCRRAATIMEVCSTAICPPLIAMSANSSRATSARTTPAGSSIGSRSSIQSRASAATSVSSNRFVGPSSRRTPSGTPQSSTSSRV | – | 855 nM |
